Laboratory results: the supplement of paper PMC7877785
± gives the uncertainty stated by the source.

Experiment: self-splicing fitness, log relative to wild type (ln ratio); higher = more splicing; Tetrahymena group I intron in knt gene, E. coli kanamycin selection, DiMSum; sequences stand for … in CUCUCU…GGAGGGAAAAGUUAUCAGGCAUGCACCUGGUAGCUAGUCUUUAAACCAAUAGAUUGCAUCGGUUUAAAAGGCAAGACCGUCAAAUUGCGGGAAAGGGGUCAACAGCCGUUCAGUACCAAGUCUCAGGGGAAACUUUGAGAUGGCCUUGCAAAGGGUAUGGUAAUAAGCUGACGGACAUGGUCCUAACCACGCAGCCAAGUCCUAAGUCAACAGAUCUUCUGUUGAUAUGGAUGCAGUUCACAGACUAAAUGUCGGUCGGGGAAGAUGUAUUCUUCUCAUAAGAUAUAGUCGGACCUCUCCUUAAUGGGAGCUAGCGGAUGAAGUGAUGCAACACUGGAGCCGCUGGGAACUAAUUUGUAUGCGAAAGUAUAUUGAUUAGUUUUGGAGUACUCGUGGUCG
Procedure, shortened: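 Colonies from six replicate transformations of E. coli BL21(DE3) were pooled and amplicon-sequenced on an Illumina HiSeq 2500. The library placed an intron with all eight P1ex-region nucleotides randomised inside the knt kanamycin-resistance gene on pET-22b(+), and cells grew overnight at 37°C or 30°C on LB agar with or without 25 μg/mL kanamycin (plus 100 μg/mL carbenicillin, 50 μM IPTG, 0.2% rhamnose). Fitness is the DiMSum error-weighted combination of wild-type-normalised replicate fold changes, kanamycin versus none.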

Sequence | self-splicing fitness (ln) (30 °C) | self-splicing fitness (ln) (37 °C)
GUUUAGCAAUAUUACGACUA | -0.518 ± 0.18 | 0.0789 ± 0.15
CAACAGCAAUAUUACGUUAG | -2.13 ± 0.076 | -1.52 ± 0.089
AGAGAGCAAUAUUACGCGCU | -1.89 ± 0.35 | 
ACAUAGCAAUAUUACGCUUA | -1.76 ± 0.19 | -1.55 ± 0.17
CACUAGCAAUAUUACGAUUA | -1.21 ± 0.21 | -2.44 ± 0.28
UACUAGCAAUAUUACGGGCA | -0.178 ± 0.071 | 0.53 ± 0.11
GUCGAGCAAUAUUACGGUGC | -2.4 ± 0.16 | -0.222 ± 0.13
CUAAAGCAAUAUUACGUGCU | -2.89 ± 0.14 | -2.75 ± 0.25
ACUUAGCAAUAUUACGCAGU | -3.83 ± 0.35 | -2.17 ± 0.21
CUGAAGCAAUAUUACGGGCA | -3.04 ± 0.22 | -1.25 ± 0.2
GUUGAGCAAUAUUACGUGCC | -3.02 ± 0.45 | 
GCUGAGCAAUAUUACGUCUG | -2.08 ± 0.14 | -0.981 ± 0.14
CUAAAGCAAUAUUACGUACG | 0.59 ± 0.095 | 0.0866 ± 0.099
AUUAAGCAAUAUUACGUGAU | -1.74 ± 0.089 | -1.34 ± 0.12
AAAUAGCAAUAUUACGAUUU | -0.479 ± 0.061 | -0.0855 ± 0.081
CCUGAGCAAUAUUACGGCUU | -3.73 ± 0.29 | -3.02 ± 0.27
CAUAAGCAAUAUUACGGUAC | -2.89 ± 0.19 | -2.14 ± 0.29
ACAUAGCAAUAUUACGUUCG | -1.04 ± 0.075 | -0.65 ± 0.1
CGACAGCAAUAUUACGCGGU | -4.5 ± 0.15 | -2.85 ± 0.14
UGGUAGCAAUAUUACGGACU | -0.67 ± 0.17 | 0.844 ± 0.2
CUUCAGCAAUAUUACGAUAU | -3.28 ± 0.22 | -1.73 ± 0.27
CUGUAGCAAUAUUACGUCGA | -2.71 ± 0.35 | -1.06 ± 0.35

Sequence | self-splicing fitness (ln) (30 °C) | self-splicing fitness (ln) (37 °C)
UCUAAGCAAUAUUACGAUUU | -2.92 ± 0.24 | -1.37 ± 0.16
UUCAAGCAAUAUUACGUAAU | -2.49 ± 0.087 | -1.56 ± 0.1
AGCCAGCAAUAUUACGAGGA | -3.35 ± 0.34 | -2.17 ± 0.27
CAUAAGCAAUAUUACGGCGG | 0.324 ± 0.087 | -0.0169 ± 0.12
GUUUAGCAAUAUUACGCCGG | -2.37 ± 0.45 | 
AAAAAGCAAUAUUACGUUUA | -1.4 ± 0.1 | -0.799 ± 0.091
UCGUAGCAAUAUUACGAGAC | -1.72 ± 0.37 | -3.18 ± 0.37
GCUUAGCAAUAUUACGCGCA | -1.37 ± 0.16 | 0.00629 ± 0.17
UUUGAGCAAUAUUACGCUUA | -3.38 ± 0.36 | -2.07 ± 0.23
UAUAAGCAAUAUUACGUGUU | -3.24 ± 0.17 | -2.22 ± 0.22
UUAUAGCAAUAUUACGUGCA | -2.37 ± 0.23 | -1.07 ± 0.2
CUUUAGCAAUAUUACGUGCA | -2.93 ± 0.23 | -2.75 ± 0.25
UUUCAGCAAUAUUACGGCUG | -4.1 ± 0.46 | -1.84 ± 0.27
UCGUAGCAAUAUUACGGAUG |  | -1.89 ± 0.47
GUUCAGCAAUAUUACGUUCC | -2.79 ± 0.29 | -1.78 ± 0.41
CAAGAGCAAUAUUACGAGCA | -2.85 ± 0.28 | -2.63 ± 0.38
CCAAAGCAAUAUUACGCGGG | -4.4 ± 0.42 | -1.38 ± 0.16
CGGGAGCAAUAUUACGGGAG | -2.76 ± 0.22 | -2.44 ± 0.3
AUCAAGCAAUAUUACGUAGU | -2.22 ± 0.08 | -1.14 ± 0.097
ACGAAGCAAUAUUACGAGCU | -1.56 ± 0.12 | -0.76 ± 0.11
UUGCAGCAAUAUUACGAAAU | -2.39 ± 0.22 | -2.33 ± 0.39
